The experiment has as its target Full-length DEMETER (DME) fused with the GAL4 DNA binding domain (Arabidopsis) (UniProt Q8LK56). In words: two-hybrid.

The text below walks through data of paper PMC3429642.

Chain of UniProt Q8LK56 (Q8LK56 whole entry, the tested form may be a part): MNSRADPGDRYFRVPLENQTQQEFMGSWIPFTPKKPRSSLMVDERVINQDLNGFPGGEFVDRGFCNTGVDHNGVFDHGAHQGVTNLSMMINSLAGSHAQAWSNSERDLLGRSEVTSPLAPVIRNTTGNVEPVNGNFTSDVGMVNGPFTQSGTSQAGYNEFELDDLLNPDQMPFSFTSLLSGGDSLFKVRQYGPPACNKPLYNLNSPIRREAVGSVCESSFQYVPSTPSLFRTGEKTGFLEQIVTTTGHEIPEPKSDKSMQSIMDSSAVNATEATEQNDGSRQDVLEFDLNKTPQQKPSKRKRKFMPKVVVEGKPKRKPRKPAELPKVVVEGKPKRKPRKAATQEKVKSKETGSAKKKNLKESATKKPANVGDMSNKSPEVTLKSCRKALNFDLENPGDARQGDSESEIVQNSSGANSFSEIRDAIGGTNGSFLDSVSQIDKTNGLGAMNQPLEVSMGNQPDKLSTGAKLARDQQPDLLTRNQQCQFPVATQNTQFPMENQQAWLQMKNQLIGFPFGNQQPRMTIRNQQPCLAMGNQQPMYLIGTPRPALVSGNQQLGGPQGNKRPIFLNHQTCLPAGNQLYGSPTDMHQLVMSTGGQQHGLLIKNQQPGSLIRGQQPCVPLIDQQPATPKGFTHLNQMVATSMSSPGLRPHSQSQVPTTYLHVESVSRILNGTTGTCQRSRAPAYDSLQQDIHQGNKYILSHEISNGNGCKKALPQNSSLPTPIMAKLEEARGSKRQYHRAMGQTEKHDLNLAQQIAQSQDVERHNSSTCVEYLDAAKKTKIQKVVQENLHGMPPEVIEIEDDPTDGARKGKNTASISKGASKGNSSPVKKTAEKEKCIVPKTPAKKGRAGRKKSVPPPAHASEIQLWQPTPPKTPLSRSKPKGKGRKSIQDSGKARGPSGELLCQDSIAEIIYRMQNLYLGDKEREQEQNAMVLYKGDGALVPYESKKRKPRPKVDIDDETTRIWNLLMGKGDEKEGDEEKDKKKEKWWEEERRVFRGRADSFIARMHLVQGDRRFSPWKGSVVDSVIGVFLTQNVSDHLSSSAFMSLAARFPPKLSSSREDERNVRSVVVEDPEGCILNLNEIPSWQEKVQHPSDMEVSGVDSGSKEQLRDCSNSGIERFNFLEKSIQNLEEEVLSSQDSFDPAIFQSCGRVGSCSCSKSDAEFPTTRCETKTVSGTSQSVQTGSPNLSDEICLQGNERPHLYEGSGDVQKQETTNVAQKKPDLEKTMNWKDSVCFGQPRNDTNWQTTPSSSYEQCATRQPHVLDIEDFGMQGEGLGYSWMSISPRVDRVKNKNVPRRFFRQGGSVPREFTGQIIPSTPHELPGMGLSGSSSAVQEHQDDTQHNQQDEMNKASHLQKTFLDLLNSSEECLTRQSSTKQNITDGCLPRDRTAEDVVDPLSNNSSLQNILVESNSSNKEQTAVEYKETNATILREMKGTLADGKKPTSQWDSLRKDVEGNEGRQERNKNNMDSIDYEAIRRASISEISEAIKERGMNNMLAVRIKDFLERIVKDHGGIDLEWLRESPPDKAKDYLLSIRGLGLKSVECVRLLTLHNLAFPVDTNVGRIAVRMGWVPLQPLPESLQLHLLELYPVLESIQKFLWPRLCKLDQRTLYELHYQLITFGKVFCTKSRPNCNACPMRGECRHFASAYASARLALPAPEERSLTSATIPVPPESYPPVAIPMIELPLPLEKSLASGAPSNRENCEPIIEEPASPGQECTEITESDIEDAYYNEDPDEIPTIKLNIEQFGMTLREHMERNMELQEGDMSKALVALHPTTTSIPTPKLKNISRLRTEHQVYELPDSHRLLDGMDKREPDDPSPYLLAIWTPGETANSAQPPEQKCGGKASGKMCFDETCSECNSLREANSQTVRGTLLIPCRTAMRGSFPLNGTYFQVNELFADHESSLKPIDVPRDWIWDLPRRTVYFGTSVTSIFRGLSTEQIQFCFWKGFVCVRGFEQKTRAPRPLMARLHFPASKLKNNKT

Substance “Histone H1.2 fused with the GAL4 activation domain (natural protein)” returned a β-galactosidase activity of 1.67 units.
